The values that follow come from publication PMC5628019.

The assay deals with MTTR (recombinant monomeric version of TTR), as non-native oligomers (human) (UniProt P02766).

For the substance “VAVHVF (truncated probe B-1, minimal binding competent sequence) (peptide)”, the incorporation compared to probe B-1 was 90 % less.
